# In patent US20170253650A1 (FRAUNHOFER GESELLSCHAFT ZUR FOERDERUNG DER ANGEWANDTEN …, published 2017):
# B1: Gb-2.44 (enterokinase-activated EGb-2.44scFv fusion protein: granzyme B R201K fused to MSP4-specific scFv 2.44) (other)
# chain: SRHIDDDDKIIGGHEAKPHSRPYMAFLMIWDQKSLKRCGGFLIRDDFVLTAAHCWGSSINVTLGAHNIKEQEPTQQFIPVKRAIPHPAYNPKNFSNDIMLLQLERKAKRTRAVQPLRLPSNKAQVKPGQTCSVAGWGQTAPLGKHSHTLQEVKMTVQEDRKCESDLRHYYDSTIELCVGDPEIKKTSFKGDSGGPLVCNKVAQGIVSYGKNNGMPPRACTKVSSFVHWIKKTMKRYAEHEGDAAQPAMADVQLQESGPGLVKPSQSLSLTCTVTGYSITSDFAWNWIRQFPGNRLEWMGYMGYTGSTSYNPSLRGRISITRDTSKNQFFLQLNSVTTEDTATYYCARGDYYGSRGYFDVWGAGTTVTVSSGGGGSGGGGSSGGGSGGGGSEIVLTQSPALMAASPGEKVTITCSVSSSIRSSNLHWYQQKSDTSPKPWIYGTSNLASGVPVRFSGSGSGTSYSLTISTMEAEDAATYYCQQWSSYPFTFGSGTKLEIKAAANSSLGSGWSHPQFEKTGHHHHHHHHGGQ
# Legend:
# [1] = target: MSP4 on P. falciparum 3D7A parasites (mature schizonts / merozoite surface) (Plasmodium falciparum 3D7A); assay: cell-based or functional assay
# [2] = target: MSP4 on P. falciparum K1 parasites (multi-drug-resistant strain) (Plasmodium falciparum K1); assay: cell-based or functional assay
binder,measurement,setting,value
B1,"half maximal inhibitory concentration (IC50-value), 48-h drug susceptibility assay on P. falciparum 3D7A (PfHRP2 ELISA)",[1],176 nM
same,"IC50-value, 48-h drug susceptibility assay on multi-drug resistant strain P. falciparum K1 (PfHRP2 ELISA)",[2],247 nM
